B1: Clone CH3C.3.2-1 (designed binder)
chain: APELLGGPSVFLFPPKPKDTLMISRTPEVTCVVVDVSHEDPEVKFNWYVDGVEVHNAKTKPREEQYNSTYRVVSVLTVLHQDWLNGKEYKCKVSNKALPAPIEKTISKAKGQPREPQVYTLPPSRDELTKNQVSLTCLVKGFYPSDIAVEWESLGHVWVNFKTTPPVLDSDGSFFLYSKLTVPKSTWQQGWVFSCSVMHEALHNHYTQKSLSLSPGK
notes: modified Fc polypeptide
B2: Clone CH3C.25 (designed binder)
chain: APELLGGPSVFLFPPKPKDTLMISRTPEVTCVVVDVSHEDPEVKFNWYVDGVEVHNAKTKPREEQYNSTYRVVSVLTVLHQDWLNGKEYKCKVSNKALPAPIEKTISKAKGQPREPQVYTLPPSRDELTKNQVSLTCLVKGFYPSDIAVEWESMGHVWVGYKTTPPVLDSDGSFFLYSKLTVDKSTWQQGWVFSCSVMHEALHNHYTQKSLSLSPGK
notes: modified Fc polypeptide
B3: Clone CH3C.21 (designed binder)
chain: APELLGGPSVFLFPPKPKDTLMISRTPEVTCVVVDVSHEDPEVKFNWYVDGVEVHNAKTKPREEQYNSTYRVVSVLTVLHQDWLNGKEYKCKVSNKALPAPIEKTISKAKGQPREPQVYTLPPSRDELTKNQVSLTCLVKGFYPSDIAVEWESLGLVWVGYKTTPPVLDSDGSFFLYSKLTVPKSTWQQGWVFSCSVMHEALHNHYTQKSLSLSPGK
notes: modified Fc polypeptide
B4: Clone CH3C.34 (designed binder)
chain: APELLGGPSVFLFPPKPKDTLMISRTPEVTCVVVDVSHEDPEVKFNWYVDGVEVHNAKTKPREEQYNSTYRVVSVLTVLHQDWLNGKEYKCKVSNKALPAPIEKTISKAKGQPREPQVYTLPPSRDELTKNQVSLTCLVKGFYPSDIAVEWESLGLVWVFSKTTPPVLDSDGSFFLYSKLTVPKSTWQQGWVFSCSVMHEALHNHYTQKSLSLSPGK
notes: modified Fc polypeptide
B5: recombinant cyno TfR ectodomain (ECD), biotinylated (receptor)
chain: CKGVEPKTECERLAGTESPAREEPEEDFPAAPRLYWDDLKRKLSEKLDTTDFTSTIKLLNENLYVPREAGSQKDENLALYIENQFREFKLSKVWRDQHFVKIQVKDSAQNSVIIVDKNGGLVYLVENPGGYVAYSKAATVTGKLVHANFGTKKDFEDLDSPVNGSIVIVRAGKITFAEKVANAESLNAIGVLIYMDQTKFPIVKADLSFFGHAHLGTGDPYTPGFPSFNHTQFPPSQSSGLPNIPVQTISRAAAEKLFGNMEGDCPSDWKTDSTCKMVTSENKSVKLTVSNVLKETKILNIFGVIKGFVEPDHYVVVGAQRDAWGPGAAKSSVGTALLLKLAQMFSDMVLKDGFQPSRSIIFASWSAGDFGSVGATEWLEGYLSSLHLKAFTYINLDKAVLGTSNFKVSASPLLYTLIEKTMQDVKHPVTGRSLYQDSNWASKVEKLTLDNAAFPFLAYSGIPAVSFCFCEDTDYPYLGTTMDTYKELVERIPELNKVARAAAEVAGQFVIKLTHDTELNLDYERYNSQLLLFLRDLNQYRADVKEMGLSLQWLYSARGDFFRATSRLTTDFRNAEKRDKFVMKKLNDRVMRVEYYFLSPYVSPKESPFRHVFWGSGSHTLSALLESLKLRRQNNSAFNETLFRNQLALATWTIQGAANALSGDVWDIDNEF

How the values were obtained:
[1] = molecular target: T1, human transferrin receptor protein 1 (TfR) (human, UniProt P02786 89-760, limits assumed); experiment: ELISA, TfR coated on plate, Fc-Fab fusion
T1 construct: also called human TfR; hTfR

[2] = molecular target: T1, human transferrin receptor protein 1 …; experiment: selection from soft randomization libraries
CH3C.35.N153.bi = experiment: SPR, TfR ECD captured, clone injected, steady state

| Binder | binding result [2] | other results |
| --- | --- | --- |
| B1 | – | binding result [1]: binds |
| B2 | binds | – |
| B3 | binds | – |
| B4 | binds | – |
| B5 | – | Kd (CH3C.35.N153.bi): 3.3 µM |

Reference: patent US20210198640A1 (DENALI THERAPEUTICS, published 2021)
